Test [1] deals with T1, activin A (UniProt P08476 311-426).
T1 construct: also called ActA
T1 sequence (looked up): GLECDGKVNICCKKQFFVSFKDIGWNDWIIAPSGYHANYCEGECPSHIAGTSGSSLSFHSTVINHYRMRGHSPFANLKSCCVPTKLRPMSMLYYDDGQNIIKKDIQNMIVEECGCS
In words: cell-based or functional assay.

Test [2] concerns the target T2, GDF11 (UniProt O95390 299-407).
T2 sequence (looked up): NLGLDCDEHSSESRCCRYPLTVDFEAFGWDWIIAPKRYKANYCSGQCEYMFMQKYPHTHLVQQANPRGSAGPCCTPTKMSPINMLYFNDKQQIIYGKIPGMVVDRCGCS
The experiment in a line: cell-based or functional assay.

For test [3], the target named is T1, activin A. In words: Biacore; Fc fusion captured by anti-hFc antibody, ligand flowed. How it is done: (§1) Binding of certain ActRIIB-Fc proteins and ActRIIB variant Fc fusion polypeptides to ligands was tested in a Biacore™ assay.
(§2) The ActRIIB-Fc variants or wild-type protein were captured onto the system using an anti-hFc antibody. Ligands were injected and flowed over the captured receptor proteins.

In test [4] the target is T2, GDF11. Described as above. How it is done: as §1, §2
The target of the next test is T3, GDF8 (UniProt O14793 267-375).
T3 construct: also called myostatin
T3 sequence (looked up): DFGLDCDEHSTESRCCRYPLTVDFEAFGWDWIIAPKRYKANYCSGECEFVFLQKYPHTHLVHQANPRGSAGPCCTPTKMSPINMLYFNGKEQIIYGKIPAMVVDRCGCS
The test is described as above. As for the experimental part: as §1, §2

As to ActRIIB-Fc A64 20-134 (Fc fusion), the Activin Inhibition Activity (KI) with activin A [1] amounted to 1000 nM. This molecule gave a GDF11 Inhibition Activity (KI) with GDF11 [2] of 1000 nM.

B1: ActRIIB(A24N 20-134)-hFc (Fc fusion)
chain: GRGENETRECIYYNANWELERTNQSGLERCEGEQDKRLHCYASWRNSSGTIELVKKGCWLDDFNCYDRQECVATEENPQVYFCCCEGNFCNERFTHLPEAGGPEVTYEPPPTAPTGGGTHTCPPCPAPELLGGPSVFLFPPKPKDTLMISRTPEVTCVVVDVSHEDPEVKFNWYVDGVEVHNAKTKPREEQYNSTYRVVSVLTVLHQDWLNGKEYKCKVSNKALPVPIEKTISKAKGQPREPQVYTLPPSREEMTKNQVSLTCLVKGFYPSDIAVEWESNGQPENNYKTTPPVLDSDGSFFLYSKLTVDKSRWQQGNVFSCSVMHEALHNHYTQKSLSLSPGK
modifications: A24N creates an N-linked glycosylation sequence (N-E-T), paragraph 96
notes: also called A24N variant
In the case of B1, in the test with activin A [3], the Kd was determined as 0.104 nM, the koff was determined as 0.000346 s⁻¹ and the on-rate (kon) was found to be 3.34e+06 M⁻¹ s⁻¹. In the test with GDF11 [4], this molecule displayed a Kd of 0.0519 nM and a koff of 6.35e-05 s⁻¹.

B2: ActRIIB(R64K 20-129)-hFc (Fc fusion)
chain: GRGEAETRECIYYNANWELERTNQSGLERCEGEQDKRLHCYASWKNSSGTIELVKKGCWLDDFNCYDRQECVATEENPQVYFCCCEGNFCNERFTHLPEAGGPEVTYEPPTGGGTHTCPPCPAPELLGGPSVFLFPPKPKDTLMISRTPEVTCVVVDVSHEDPEVKFNWYVDGVEVHNAKTKPREEQYNSTYRVVSVLTVLHQDWLNGKEYKCKVSNKALPVPIEKTISKAKGQPREPQVYTLPPSREEMTKNQVSLTCLVKGFYPSDIAVEWESNGQPENNYKTTPPVLDSDGSFFLYSKLTVDKSRWQQGNVFSCSVMHEALHNHYTQKSLSLSPGK
As to B2, in the test with activin A [3], binding was characterised by a dissociation constant (Kd) of 0.0841 nM, the koff is 0.000628 s⁻¹ and the kon is 7.46e+06 M⁻¹ s⁻¹. In the test with GDF8, this molecule gave a Kd of 2.15 nM and a koff of 0.000209 s⁻¹.

(Values after patent publication US20240299493A1 (ACCELERON PHARMA, published 2024).)
